According to publication doi:10.1101/247882 (bioRxiv, 2018):

Key:
[1] = biological target: Truncated Synechocystis FRP spanning amino acids 8-109 (Synechocystis sp. PCC 6803); assay: SEC-MALS + other: SAXS
[2] = biological target: T1, Synechocystis OCP lacking the N-terminal extension, construct OCP_(13-317), holoprotein (Synechocystis sp. PCC 6803, UniProt P74102 13-317); assay: SEC-MALS
T1 sequence: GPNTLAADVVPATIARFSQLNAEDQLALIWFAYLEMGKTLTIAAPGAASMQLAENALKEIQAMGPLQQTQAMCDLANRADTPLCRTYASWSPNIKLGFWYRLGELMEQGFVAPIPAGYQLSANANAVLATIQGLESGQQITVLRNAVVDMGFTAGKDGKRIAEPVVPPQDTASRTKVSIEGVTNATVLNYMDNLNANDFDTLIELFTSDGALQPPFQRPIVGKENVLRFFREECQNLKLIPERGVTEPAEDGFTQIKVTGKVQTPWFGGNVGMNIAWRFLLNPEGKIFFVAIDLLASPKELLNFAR

SAXS = biological target: the molecule itself; assay: SAXS

## Truncated Synechocystis FRP spanning amino acids 8-109 (domain or fragment)
[1]
  stoichiometry N: 2

B1: Synechocystis FRP (fluorescence recovery protein), wild-type construct with uncleavable N-terminal His6 tag and linker (natural protein)
chain: LQTAEAPWSQAETQSAHALFRKAYQRELDGLLATVQAQASQITQIDDLWKLHDFLSAKRHEIDGKYDDRQSVIIFVFAQLLKEGLVQAEELTFLAADKQSKIKALARL
[2]
  stoichiometry N: 2 FRP per OCP

B2: Arthrospira maxima FRP (natural protein)
chain: MSEINWSEQDKNAAVDALHKAYEREVKILIDEVKQKAFNLTEIDEVWKLHDFLSARRHDIDGKYDYRDAASVFVLATLVKQGWLSLEELQVLGQDKLAKISALTRL
[2]
  stoichiometry N: 1 FRP per OCP
SAXS
  stoichiometry N: 2
